Measured values: PMC9943673

How the values were obtained:
TIN2 = TIN2 (UniProt Q9BSI4); assay: biotin-peptide pull-down from nuclear extract, MS; conditions: reference: unphosphorylated peptide (TRF2-CTRL); sites S410
[1] = molecular target: TRF2-CTRL peptide labelled at the N-terminus with carboxyfluorescein (FAM) (human); assay: fluorescence polarisation; fluorescence anisotropy; 3 nM FAM-peptide titrated with TIN2 to 500 nM; 50 mM NaCl, 50 mM phosphate buffer pH 7.0, 25 C
[2] = molecular target: TRF2-pS410 peptide labelled at the N-terminus with carboxyfluorescein (FAM) (human); assay: as above
TRF2-pS410 peptide labelled at the N-terminus with carboxyfluorescein (FAM) (human), sequence (Q15554 401-420): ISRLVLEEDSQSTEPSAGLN

| binding against the reference (TIN2) | Kd [1] | Kd [2] | Substance |
| --- | --- | --- | --- |
| stronger | – | – | TRF2 (from UniProt Q15554) pS410 peptide |
| – | 240 nM | 180 nM | purified human TIN2 (from UniProt Q9BSI4 1-451) (natural protein) |
